{"source": "paper PMC9154193", "origin": "cited, not measured here", "key": {"ULBP3 (Homo sapiens)": {"biological_target": "ULBP3 (Homo sapiens) (UniProt Q9BZM4)", "sequence (Q9BZM4 30-217)": "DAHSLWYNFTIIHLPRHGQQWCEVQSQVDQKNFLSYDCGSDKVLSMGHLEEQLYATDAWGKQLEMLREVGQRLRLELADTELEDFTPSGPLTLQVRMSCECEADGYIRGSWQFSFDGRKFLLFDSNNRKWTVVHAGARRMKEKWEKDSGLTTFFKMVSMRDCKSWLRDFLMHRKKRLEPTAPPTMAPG"}, "Grb2 SH3 (Homo sapiens)": {"biological_target": "Grb2 SH3 (Homo sapiens) (UniProt P62993)", "sequence (P62993 156-215)": "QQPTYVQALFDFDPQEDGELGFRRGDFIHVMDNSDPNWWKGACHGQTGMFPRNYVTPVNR"}, "Lck SH2 (Homo sapiens)": {"biological_target": "Lck SH2 (Homo sapiens) (UniProt P06239)", "sequence (P06239 124-227)": "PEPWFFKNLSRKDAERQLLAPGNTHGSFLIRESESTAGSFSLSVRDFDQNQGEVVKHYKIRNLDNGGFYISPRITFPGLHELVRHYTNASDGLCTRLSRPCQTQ"}}}
{"substance": "NKG2D (from UniProt P26718)", "values": [{"measurement": "Kd", "setting": "ULBP3 (Homo sapiens)", "value": 4, "unit": "µM"}]}
{"substance": "Vav1 SH3 (from UniProt P15498)", "values": [{"measurement": "Kd", "setting": "Grb2 SH3 (Homo sapiens)", "value": 16.8, "unit": "µM"}]}
{"substance": "Vav1 phospho-tyrosine region (from UniProt P15498)", "values": [{"measurement": "Kd", "setting": "Lck SH2 (Homo sapiens)", "value": 1.39, "unit": "µM"}]}
